The results in this text go back to paper PMC5493754, “Myosin 7 and its adaptors link cadherins to actin” (Nature Communications, 2017).

Usually Kd stands for the constant that tells how readily two partners part at equilibrium. Read a low Kd as tighter binding.

Assay [1] deals with YFP-Harmonin-a PDZ3c (human) (UniProt Q9Y6N9). Nature of the assay: MST; YFP-fused partner constant at 100 nM, non-fluorescent protein titrated (16 two-fold dilutions); 20 mM Hepes pH 7.0, 100 mM NaCl, 1 mM EGTA, 0.5 mM TCEP, 0.05% Tween 20; Monolith NT.115.
In another assay the target is YFP-SANS_(CEN-PBM) (UniProt Q495M9). The description is as above.
In assay [2] the target is YFP-ANKS4B_(CEN-PBM) (human) (UniProt Q8N8V4). The description is as above.
The target in assay [3] is T1, Full length (FL)-harmonin (harmonin-a1) (human, UniProt Q9Y6N9-1 1-552).
T1 construct: Harmonin-a1 (USH1C), human, residues 1-552 of UniProt Q9Y6N9-1; also called FL-harmonin-a; source: E. coli BL21 (DE3) Rosetta, purified (Glutathione Sepharose 4B, size-exclusion chromatography)
T1 sequence (looked up): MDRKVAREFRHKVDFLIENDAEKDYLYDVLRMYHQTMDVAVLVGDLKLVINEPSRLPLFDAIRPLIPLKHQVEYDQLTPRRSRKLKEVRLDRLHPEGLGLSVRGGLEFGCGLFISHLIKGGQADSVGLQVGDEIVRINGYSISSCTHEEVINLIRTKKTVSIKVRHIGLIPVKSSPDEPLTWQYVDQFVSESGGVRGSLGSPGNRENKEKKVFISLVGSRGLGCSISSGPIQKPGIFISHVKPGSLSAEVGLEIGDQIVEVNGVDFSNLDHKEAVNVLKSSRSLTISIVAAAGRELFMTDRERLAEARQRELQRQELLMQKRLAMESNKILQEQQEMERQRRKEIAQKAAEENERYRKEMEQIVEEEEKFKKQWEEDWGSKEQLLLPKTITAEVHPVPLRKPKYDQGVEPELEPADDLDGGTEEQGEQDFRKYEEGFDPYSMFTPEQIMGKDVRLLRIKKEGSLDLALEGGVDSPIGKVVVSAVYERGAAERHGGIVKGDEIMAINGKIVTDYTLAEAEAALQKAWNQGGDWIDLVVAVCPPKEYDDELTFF
In words: MST; as a1 but 150 mM NaCl (for FL-Harmonin-a); YFP-fused partner constant at 100 nM, non-fluorescent protein titrated. The settings on record: both partners purified.

The next assay concerns the target T2, Myosin 7a MF1.SH3 (human, UniProt Q13402-1 991-1692, residues 1523-1560 were deleted from MF1).
T2 construct: Myosin 7a, human, N-terminal MyTH4-FERM domain and SH3, residues 991-1692 of UniProt Q13402-1; residues 1523-1560 deleted; Thrombin site of the vector replaced by an SSG linker; also called M7a MF1.SH3; Myo7a MF1.SH3; source: E. coli (BL21-AI, BL21 (DE3) Rosetta or BL21-Gold (DE3)), purified (Histrap, CaptoQ, gel filtration)
T2 sequence (looked up): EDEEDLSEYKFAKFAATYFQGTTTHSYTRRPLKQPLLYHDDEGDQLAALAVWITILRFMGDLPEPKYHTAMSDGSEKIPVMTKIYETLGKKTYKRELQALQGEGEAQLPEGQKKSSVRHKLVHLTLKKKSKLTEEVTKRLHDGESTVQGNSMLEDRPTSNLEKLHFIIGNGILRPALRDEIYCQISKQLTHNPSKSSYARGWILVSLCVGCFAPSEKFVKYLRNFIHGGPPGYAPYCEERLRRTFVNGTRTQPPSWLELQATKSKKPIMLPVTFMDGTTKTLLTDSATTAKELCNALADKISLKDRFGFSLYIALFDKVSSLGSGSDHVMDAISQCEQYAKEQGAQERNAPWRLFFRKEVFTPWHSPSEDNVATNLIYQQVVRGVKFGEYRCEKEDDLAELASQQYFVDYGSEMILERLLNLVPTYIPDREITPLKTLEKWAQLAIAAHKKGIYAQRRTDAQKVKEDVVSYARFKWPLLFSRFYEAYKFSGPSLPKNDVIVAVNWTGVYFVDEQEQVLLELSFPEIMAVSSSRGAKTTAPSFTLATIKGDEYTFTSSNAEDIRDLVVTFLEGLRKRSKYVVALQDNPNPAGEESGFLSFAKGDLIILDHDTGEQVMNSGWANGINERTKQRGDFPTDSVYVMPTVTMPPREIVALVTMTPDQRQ
Nature of the assay: MST; YFP-fused partner constant at 100 nM, non-fluorescent protein titrated (16 two-fold dilutions); 20 mM Hepes pH 7.0, 100 mM NaCl, 1 mM EGTA, 0.5 mM TCEP, 0.05% Tween 20; Monolith NT.115. The conditions noted are these: both partners purified.

For another assay, the target named is T3, Myosin 7b MF1.SH3 (human, UniProt Q6PIF6 958-1586).
T3 construct: also called M7b MF1.SH3; Myo7b MF1.SH3; source: E. coli (BL21-AI, BL21 (DE3) Rosetta or BL21-Gold (DE3)), purified (Histrap, CaptoQ, gel filtration)
T3 sequence: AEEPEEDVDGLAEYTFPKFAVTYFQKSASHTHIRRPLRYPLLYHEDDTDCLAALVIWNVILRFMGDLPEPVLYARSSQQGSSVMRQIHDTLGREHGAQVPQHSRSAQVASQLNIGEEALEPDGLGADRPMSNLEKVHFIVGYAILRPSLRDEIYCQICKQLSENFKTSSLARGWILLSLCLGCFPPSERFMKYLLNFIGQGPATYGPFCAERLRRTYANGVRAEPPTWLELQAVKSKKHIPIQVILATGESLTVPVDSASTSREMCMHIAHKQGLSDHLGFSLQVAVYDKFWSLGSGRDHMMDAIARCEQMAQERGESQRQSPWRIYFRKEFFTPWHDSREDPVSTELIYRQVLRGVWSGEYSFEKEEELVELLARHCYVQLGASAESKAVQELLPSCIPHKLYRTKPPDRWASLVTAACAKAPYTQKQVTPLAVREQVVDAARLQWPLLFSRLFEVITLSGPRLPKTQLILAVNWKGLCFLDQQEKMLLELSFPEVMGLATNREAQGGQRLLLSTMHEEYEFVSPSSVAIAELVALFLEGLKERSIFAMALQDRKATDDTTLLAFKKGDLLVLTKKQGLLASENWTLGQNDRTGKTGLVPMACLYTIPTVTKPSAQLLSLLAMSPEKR
The description is as above. The settings on record: both partners purified.

A further assay has as its target T4, Harmonin NPDZ1.PDZ2 (human, UniProt Q9Y6N9-1 1-301).
T4 construct: Harmonin-a1 (USH1C), human, N-terminal domain, PDZ1 and PDZ2, residues 1-301 of UniProt Q9Y6N9-1; source: E. coli BL21 (DE3) Rosetta, purified (Glutathione Sepharose 4B, size-exclusion chromatography)
T4 sequence (looked up): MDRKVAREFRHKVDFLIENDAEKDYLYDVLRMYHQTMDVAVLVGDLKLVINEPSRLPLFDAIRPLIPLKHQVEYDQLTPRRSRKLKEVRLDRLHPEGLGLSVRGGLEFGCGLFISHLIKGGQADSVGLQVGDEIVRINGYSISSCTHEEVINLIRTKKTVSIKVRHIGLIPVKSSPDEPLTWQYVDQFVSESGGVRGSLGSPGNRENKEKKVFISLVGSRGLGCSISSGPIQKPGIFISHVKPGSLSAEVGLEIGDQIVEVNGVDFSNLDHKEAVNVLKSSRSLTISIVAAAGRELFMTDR
The assay is described as above. The conditions noted are these: both partners purified.

In the next assay the target is T5, Myosin 7b MF1.SH3 A1128E (human, UniProt Q6PIF6 958-1586, A1128E).
T5 construct: Myosin 7b, human, MF1.SH3, residues 958-1586 of UniProt Q6PIF6; also called M7b MF1.SH3 A1128E; source: E. coli, purified similarly as wild type (Histrap, CaptoQ, gel filtration)
T5 sequence: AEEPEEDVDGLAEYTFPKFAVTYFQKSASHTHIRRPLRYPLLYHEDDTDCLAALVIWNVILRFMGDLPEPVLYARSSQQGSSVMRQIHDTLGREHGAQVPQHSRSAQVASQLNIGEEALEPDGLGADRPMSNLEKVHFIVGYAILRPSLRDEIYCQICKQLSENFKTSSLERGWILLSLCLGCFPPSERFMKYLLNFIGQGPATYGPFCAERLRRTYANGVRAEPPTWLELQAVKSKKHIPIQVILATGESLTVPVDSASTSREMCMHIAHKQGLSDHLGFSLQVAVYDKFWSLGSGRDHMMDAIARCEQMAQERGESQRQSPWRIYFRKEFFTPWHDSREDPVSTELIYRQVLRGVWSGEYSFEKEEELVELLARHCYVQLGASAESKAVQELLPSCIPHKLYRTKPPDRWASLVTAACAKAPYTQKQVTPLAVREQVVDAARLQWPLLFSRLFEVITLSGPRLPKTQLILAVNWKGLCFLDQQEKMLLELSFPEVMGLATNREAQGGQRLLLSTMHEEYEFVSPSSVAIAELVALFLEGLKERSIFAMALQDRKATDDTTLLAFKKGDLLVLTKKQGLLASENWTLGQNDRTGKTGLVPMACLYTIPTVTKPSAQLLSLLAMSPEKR
The description is as above. The settings on record: both partners purified.

Consider “Myosin 7b MF2 R1921E-F1923V (from UniProt Q6PIF6 1605-2116) (domain or fragment)”, for which the Kd in assay [1] was > 100 µM.

As to “Myosin 7b MF1.SH3 K1194E-K1195E R1171E-R1172E (from UniProt Q6PIF6 958-1586) (domain or fragment)”, the values for the Kd (with YFP-SANS_(CEN-PBM); in assay [2]) were 6.6 µM and 3.1 µM, respectively.

B1: YFP-FL-harmonin-ΔCter (domain or fragment, human, UniProt Q9Y6N9-1 1-542, looked up)
chain: MDRKVAREFRHKVDFLIENDAEKDYLYDVLRMYHQTMDVAVLVGDLKLVINEPSRLPLFDAIRPLIPLKHQVEYDQLTPRRSRKLKEVRLDRLHPEGLGLSVRGGLEFGCGLFISHLIKGGQADSVGLQVGDEIVRINGYSISSCTHEEVINLIRTKKTVSIKVRHIGLIPVKSSPDEPLTWQYVDQFVSESGGVRGSLGSPGNRENKEKKVFISLVGSRGLGCSISSGPIQKPGIFISHVKPGSLSAEVGLEIGDQIVEVNGVDFSNLDHKEAVNVLKSSRSLTISIVAAAGRELFMTDRERLAEARQRELQRQELLMQKRLAMESNKILQEQQEMERQRRKEIAQKAAEENERYRKEMEQIVEEEEKFKKQWEEDWGSKEQLLLPKTITAEVHPVPLRKPKYDQGVEPELEPADDLDGGTEEQGEQDFRKYEEGFDPYSMFTPEQIMGKDVRLLRIKKEGSLDLALEGGVDSPIGKVVVSAVYERGAAERHGGIVKGDEIMAINGKIVTDYTLAEAEAALQKAWNQGGDWIDLVVAVCPP
notes: Harmonin-a1 (USH1C), human, residues 1-542 of UniProt Q9Y6N9-1; also called ^YFPFL ΔCter; source: E. coli BL21 (DE3) Rosetta, purified (Glutathione Sepharose 4B, size-exclusion chromatography)
The molecule B1 returned a Kd in assay [3] of 2.5 µM.

B2: YFP-ANKS4B_(CEN-PBM) (domain or fragment, human, UniProt Q8N8V4 259-417, looked up)
chain: SVHHESILNRPGLGSIVFRRNRISSPEDISDSKREFGFKLPSELLQRQGASEADEGAADEEGEENGLKDDLPWDDDEVEWEEDVVDATPLEVFLLSQHLEEFLPIFKREQIDLEALLLCSDEDLQSIQMQLGPRKKVLNAINRRKQVLQQPGQLVDTSL
notes: ANKS4B, human, CEN regions, SAM domain and PBM, residues 259-417 of UniProt Q8N8V4; source: E. coli (BL21-AI, BL21 (DE3) Rosetta or BL21-Gold (DE3)), purified (Histrap, CaptoQ, gel filtration); not shown: YFP, N-terminal, kept
Turning to B2, the Kd worked out at 4.9 ± 0.7 µM in the assay with Myosin 7a MF1.SH3, 4.3 ± 0.8 µM with Myosin 7b MF1.SH3, 0.009 µM with Harmonin NPDZ1.PDZ2 and 13.1 ± 0.7 µM with Myosin 7b MF1.SH3 A1128E.

B3: YFP-SANS_(CEN-PBM) (domain or fragment, UniProt Q495M9 300-461, looked up)
chain: DSGHDSLFTRPGLGTMVFRRNYLSSGLHGLGREDGGLDGVGAPRGRLQSSPSLDDDSLGSANSLQDRSCGEELPWDELDLGLDEDLEPETSPLETFLASLHMEDFAALLRQEKIDLEALMLCSDLDLRSISVPLGPRKKILGAVRRRRQAMERPPALEDTEL
notes: The full-length SANS gene was synthesised; source: E. coli (BL21-AI, BL21 (DE3) Rosetta or BL21-Gold (DE3)), purified (Histrap, CaptoQ, gel filtration); not shown: YFP, N-terminal, kept
With B3, the Kd with Myosin 7a MF1.SH3 was found to be 0.13 ± 0.02 µM; with Myosin 7b MF1.SH3, 5.4 ± 1.6 µM; in the assay with Harmonin NPDZ1.PDZ2, 0.017 µM; with Myosin 7b MF1.SH3 A1128E, 18.2 ± 2.8 µM.
